This experiment concerns the target Native MsrA/B on the surface of N. gonorrhoeae 1291 cells (N. gonorrhoeae strain 1291) (UniProt P14930). The experiment can be described thus: whole cell ELISA, N. gonorrhoeae 1291 strains.

Native MsrA/B on the surface of N. gonorrhoeae 1291 cells (N. gonorrhoeae strain 1291), sequence (P14930 1-519, tags or fused parts left off): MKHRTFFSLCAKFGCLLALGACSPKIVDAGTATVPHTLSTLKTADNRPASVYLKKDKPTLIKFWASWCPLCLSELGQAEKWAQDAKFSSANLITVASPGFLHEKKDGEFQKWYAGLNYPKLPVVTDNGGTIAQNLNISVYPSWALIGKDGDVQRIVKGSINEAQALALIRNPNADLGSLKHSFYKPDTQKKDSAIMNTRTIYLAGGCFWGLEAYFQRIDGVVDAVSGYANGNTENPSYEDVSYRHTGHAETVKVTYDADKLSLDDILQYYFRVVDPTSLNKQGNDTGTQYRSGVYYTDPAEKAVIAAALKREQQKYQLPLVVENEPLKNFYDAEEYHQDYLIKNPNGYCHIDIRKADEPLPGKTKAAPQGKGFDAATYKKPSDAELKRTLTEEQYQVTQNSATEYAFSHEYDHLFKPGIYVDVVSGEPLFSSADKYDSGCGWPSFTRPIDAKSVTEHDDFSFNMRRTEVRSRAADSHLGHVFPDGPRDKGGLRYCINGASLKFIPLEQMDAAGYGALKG

With Pre-immune mouse sera (antibody), the ELISA titre vs whole cells was < 200 titre.

The record behind these values is patent US20250352630A1.
